Laboratory results taken from article PMC1885664 (Nucleic Acids Research, 2007).

Key:
SEC = target: the molecule itself; test: SEC
crystal structure = target: the molecule itself; test: crystal structure

Protein | binding result (SEC) | stoichiometry N (crystal structure)
P. aeruginosa RdgC K146A mutant (natural protein, Pseudomonas aeruginosa PAO1, UniProt Q9HYX7 1-306, looked up) MWFRNLLVYRLTQDLQLDADSLEKALGEKSARPCASQELTTYGFTAPFGKGPDAPLVHVSQDFFLISARKEERILPGSVVRDALKEKVDEIEAQQMRKVYKKERDQLKDEIVQTLLPRAFIRRSSTFAAIAPSLGLILVDSASAKAAEDLLSTLREALGSLPVRPLSVKVAPTATLTDWVKTQEAAGDFHVLDECELRDTHEDGGVVRCKRQDLTSEEIQLHLTAGKLVTQLSLAWSDKLSFVLDDKLAVKRLRFEDLLQEQAEKDGGEDALGQLDASFTLMMLTFAEFLPALFEALGGEEIPQGV | binds | 
P. aeruginosa RdgC R252A mutant (natural protein, Pseudomonas aeruginosa PAO1, UniProt Q9HYX7 1-306, looked up) MWFRNLLVYRLTQDLQLDADSLEKALGEKSARPCASQELTTYGFTAPFGKGPDAPLVHVSQDFFLISARKEERILPGSVVRDALKEKVDEIEAQQMRKVYKKERDQLKDEIVQTLLPRAFIRRSSTFAAIAPSLGLILVDSASAKKAEDLLSTLREALGSLPVRPLSVKVAPTATLTDWVKTQEAAGDFHVLDECELRDTHEDGGVVRCKRQDLTSEEIQLHLTAGKLVTQLSLAWSDKLSFVLDDKLAVKALRFEDLLQEQAEKDGGEDALGQLDASFTLMMLTFAEFLPALFEALGGEEIPQGV | binds | 
P. aeruginosa RdgC F120A mutant (natural protein, Pseudomonas aeruginosa PAO1, UniProt Q9HYX7 1-306, looked up) MWFRNLLVYRLTQDLQLDADSLEKALGEKSARPCASQELTTYGFTAPFGKGPDAPLVHVSQDFFLISARKEERILPGSVVRDALKEKVDEIEAQQMRKVYKKERDQLKDEIVQTLLPRAAIRRSSTFAAIAPSLGLILVDSASAKKAEDLLSTLREALGSLPVRPLSVKVAPTATLTDWVKTQEAAGDFHVLDECELRDTHEDGGVVRCKRQDLTSEEIQLHLTAGKLVTQLSLAWSDKLSFVLDDKLAVKRLRFEDLLQEQAEKDGGEDALGQLDASFTLMMLTFAEFLPALFEALGGEEIPQGV | binds | 
P. aeruginosa RdgC R4A mutant (natural protein, Pseudomonas aeruginosa PAO1, UniProt Q9HYX7 1-306, looked up) MWFANLLVYRLTQDLQLDADSLEKALGEKSARPCASQELTTYGFTAPFGKGPDAPLVHVSQDFFLISARKEERILPGSVVRDALKEKVDEIEAQQMRKVYKKERDQLKDEIVQTLLPRAFIRRSSTFAAIAPSLGLILVDSASAKKAEDLLSTLREALGSLPVRPLSVKVAPTATLTDWVKTQEAAGDFHVLDECELRDTHEDGGVVRCKRQDLTSEEIQLHLTAGKLVTQLSLAWSDKLSFVLDDKLAVKRLRFEDLLQEQAEKDGGEDALGQLDASFTLMMLTFAEFLPALFEALGGEEIPQGV | binds | 
P. aeruginosa RdgC R81D mutant (natural protein, Pseudomonas aeruginosa PAO1, UniProt Q9HYX7 1-306, looked up) MWFRNLLVYRLTQDLQLDADSLEKALGEKSARPCASQELTTYGFTAPFGKGPDAPLVHVSQDFFLISARKEERILPGSVVDDALKEKVDEIEAQQMRKVYKKERDQLKDEIVQTLLPRAFIRRSSTFAAIAPSLGLILVDSASAKKAEDLLSTLREALGSLPVRPLSVKVAPTATLTDWVKTQEAAGDFHVLDECELRDTHEDGGVVRCKRQDLTSEEIQLHLTAGKLVTQLSLAWSDKLSFVLDDKLAVKRLRFEDLLQEQAEKDGGEDALGQLDASFTLMMLTFAEFLPALFEALGGEEIPQGV | binds | 
P. aeruginosa RdgC R198A mutant (natural protein, Pseudomonas aeruginosa PAO1, UniProt Q9HYX7 1-306, looked up) MWFRNLLVYRLTQDLQLDADSLEKALGEKSARPCASQELTTYGFTAPFGKGPDAPLVHVSQDFFLISARKEERILPGSVVRDALKEKVDEIEAQQMRKVYKKERDQLKDEIVQTLLPRAFIRRSSTFAAIAPSLGLILVDSASAKKAEDLLSTLREALGSLPVRPLSVKVAPTATLTDWVKTQEAAGDFHVLDECELADTHEDGGVVRCKRQDLTSEEIQLHLTAGKLVTQLSLAWSDKLSFVLDDKLAVKRLRFEDLLQEQAEKDGGEDALGQLDASFTLMMLTFAEFLPALFEALGGEEIPQGV | binds | 
P. aeruginosa RdgC R211D mutant (natural protein, Pseudomonas aeruginosa PAO1, UniProt Q9HYX7 1-306, looked up) MWFRNLLVYRLTQDLQLDADSLEKALGEKSARPCASQELTTYGFTAPFGKGPDAPLVHVSQDFFLISARKEERILPGSVVRDALKEKVDEIEAQQMRKVYKKERDQLKDEIVQTLLPRAFIRRSSTFAAIAPSLGLILVDSASAKKAEDLLSTLREALGSLPVRPLSVKVAPTATLTDWVKTQEAAGDFHVLDECELRDTHEDGGVVRCKDQDLTSEEIQLHLTAGKLVTQLSLAWSDKLSFVLDDKLAVKRLRFEDLLQEQAEKDGGEDALGQLDASFTLMMLTFAEFLPALFEALGGEEIPQGV | binds | 
P. aeruginosa RdgC R208A mutant (natural protein, Pseudomonas aeruginosa PAO1, UniProt Q9HYX7 1-306, looked up) MWFRNLLVYRLTQDLQLDADSLEKALGEKSARPCASQELTTYGFTAPFGKGPDAPLVHVSQDFFLISARKEERILPGSVVRDALKEKVDEIEAQQMRKVYKKERDQLKDEIVQTLLPRAFIRRSSTFAAIAPSLGLILVDSASAKKAEDLLSTLREALGSLPVRPLSVKVAPTATLTDWVKTQEAAGDFHVLDECELRDTHEDGGVVACKRQDLTSEEIQLHLTAGKLVTQLSLAWSDKLSFVLDDKLAVKRLRFEDLLQEQAEKDGGEDALGQLDASFTLMMLTFAEFLPALFEALGGEEIPQGV | binds | 
P. aeruginosa RdgC K70D mutant (natural protein, Pseudomonas aeruginosa PAO1, UniProt Q9HYX7 1-306, looked up) MWFRNLLVYRLTQDLQLDADSLEKALGEKSARPCASQELTTYGFTAPFGKGPDAPLVHVSQDFFLISARDEERILPGSVVRDALKEKVDEIEAQQMRKVYKKERDQLKDEIVQTLLPRAFIRRSSTFAAIAPSLGLILVDSASAKKAEDLLSTLREALGSLPVRPLSVKVAPTATLTDWVKTQEAAGDFHVLDECELRDTHEDGGVVRCKRQDLTSEEIQLHLTAGKLVTQLSLAWSDKLSFVLDDKLAVKRLRFEDLLQEQAEKDGGEDALGQLDASFTLMMLTFAEFLPALFEALGGEEIPQGV | binds | 
Pseudomonas aeruginosa RdgC (recombination-associated DNA-binding protein), wild type (natural protein, Pseudomonas aeruginosa PAO1, UniProt Q9HYX7 1-306, looked up) MWFRNLLVYRLTQDLQLDADSLEKALGEKSARPCASQELTTYGFTAPFGKGPDAPLVHVSQDFFLISARKEERILPGSVVRDALKEKVDEIEAQQMRKVYKKERDQLKDEIVQTLLPRAFIRRSSTFAAIAPSLGLILVDSASAKKAEDLLSTLREALGSLPVRPLSVKVAPTATLTDWVKTQEAAGDFHVLDECELRDTHEDGGVVRCKRQDLTSEEIQLHLTAGKLVTQLSLAWSDKLSFVLDDKLAVKRLRFEDLLQEQAEKDGGEDALGQLDASFTLMMLTFAEFLPALFEALGGEEIPQGV |  | 2
P. aeruginosa RdgC Q212A mutant (natural protein, Pseudomonas aeruginosa PAO1, UniProt Q9HYX7 1-306, looked up) MWFRNLLVYRLTQDLQLDADSLEKALGEKSARPCASQELTTYGFTAPFGKGPDAPLVHVSQDFFLISARKEERILPGSVVRDALKEKVDEIEAQQMRKVYKKERDQLKDEIVQTLLPRAFIRRSSTFAAIAPSLGLILVDSASAKKAEDLLSTLREALGSLPVRPLSVKVAPTATLTDWVKTQEAAGDFHVLDECELRDTHEDGGVVRCKRADLTSEEIQLHLTAGKLVTQLSLAWSDKLSFVLDDKLAVKRLRFEDLLQEQAEKDGGEDALGQLDASFTLMMLTFAEFLPALFEALGGEEIPQGV | binds | 
P. aeruginosa RdgC R122D mutant (natural protein, Pseudomonas aeruginosa PAO1, UniProt Q9HYX7 1-306, looked up) MWFRNLLVYRLTQDLQLDADSLEKALGEKSARPCASQELTTYGFTAPFGKGPDAPLVHVSQDFFLISARKEERILPGSVVRDALKEKVDEIEAQQMRKVYKKERDQLKDEIVQTLLPRAFIDRSSTFAAIAPSLGLILVDSASAKKAEDLLSTLREALGSLPVRPLSVKVAPTATLTDWVKTQEAAGDFHVLDECELRDTHEDGGVVRCKRQDLTSEEIQLHLTAGKLVTQLSLAWSDKLSFVLDDKLAVKRLRFEDLLQEQAEKDGGEDALGQLDASFTLMMLTFAEFLPALFEALGGEEIPQGV | binds | 
